Literature values in article PMC6959264.

Legend:
Asp74 = Asp74 (UniProt position 74, WARYIDWVITT); conditions: original (unphotolyzed, dark) state implied
Asp85 = Asp85 (UniProt position 98, WARYADWLFTT)
Asp212 = Asp212 (UniProt position 225, LFMVLDVSAKV)
Asp96 = Asp96 (UniProt position 109, PLLLLDLALLV)

Substance | pKa (Asp74) | pKa (Asp85) | pKa (Asp212) | pKa (Asp96)
Rubrobacter xylanophilus rhodopsin (RxR) (Rubrobacter xylanophilus (DSM 9941)) | 1.3 |  |  | 
Bacteriorhodopsin (BR) (Halobacterium salinarum) |  | 2.6 | <2.5 | >12.0
